Data from ChEMBL document CHEMBL1268867, “ATPases as drug targets: insights from heat shock proteins 70 and 90” (J Med Chem, 2010).

Tests used:
[1] = substrate: Nc1ncnc2c1ncn2[C@@H]1O[C@H](COP(=O)(O)OP(=O)(O)OP(=O)(O)O)[C@@H](O)[C@H]1O; test: Binding affinity to aurora B
[2] = substrate: Nc1ncnc2c1ncn2[C@@H]1O[C@H](COP(=O)(O)OP(=O)(O)OP(=O)(O)O)[C@@H](O)[C@H]1O; test: Binding affinity to CHK1
[3] = substrate: Nc1ncnc2c1ncn2[C@@H]1O[C@H](COP(=O)(O)OP(=O)(O)OP(=O)(O)O)[C@@H](O)[C@H]1O; test: Binding affinity to Akt2

B1: Aurora kinase B (Homo sapiens), Q96GD4 (protein)
chain: MAQKENSYPWPYGRQTAPSGLSTLPQRVLRKEPVTPSALVLMSRSNVQPTAAPGQKVMENSSGTPDILTRHFTIDDFEIGRPLGKGKFGNVYLAREKKSHFIVALKVLFKSQIEKEGVEHQLRREIEIQAHLHHPNILRLYNYFYDRRRIYLILEYAPRGELYKELQKSCTFDEQRTATIMEELADALMYCHGKKVIHRDIKPENLLLGLKGELKIADFGWSVHAPSLRRKTMCGTLDYLPPEMIEGRMHNEKVDLWCIGVLCYELLVGNPPFESASHNETYRRIVKVDLKFPASVPMGAQDLISKLLRHNPSERLPLAQVSAHPWVRANSRRVLPPSALQSVA
Which Km [1] does the source give for B1 here?
The Km was 34 µM.

B2: Serine/threonine-protein kinase Chk1 (Homo sapiens), O14757 (protein)
chain: MAVPFVEDWDLVQTLGEGAYGEVQLAVNRVTEEAVAVKIVDMKRAVDCPENIKKEICINKMLNHENVVKFYGHRREGNIQYLFLEYCSGGELFDRIEPDIGMPEPDAQRFFHQLMAGVVYLHGIGITHRDIKPENLLLDERDNLKISDFGLATVFRYNNRERLLNKMCGTLPYVAPELLKRREFHAEPVDVWSCGIVLTAMLAGELPWDQPSDSCQEYSDWKEKKTYLNPWKKIDSAPLALLHKILVENPSARITIPDIKKDRWYNKPLKKGAKRPRVTSGGVSESPSGFSKHIQSNLDFSPVNSASSEENVKYSSSQPEPRTGLSLWDTSPSYIDKLVQGISFSQPTCPDHMLLNSQLLGTPGSSQNPWQRLVKRMTRFFTKLDADKSYQCLKETCEKLGYQWKKSCMNQVTISTTDRRNNKLIFKVNLLEMDDKILVDFRLSKGDGLEFKRHFLKIKGKLIDIVSSQKIWLPAT
Which Km [2] does the source give for B2 here?
The Km was 1.4 µM.

B3: RAC-beta serine/threonine-protein kinase (Homo sapiens), P31751 (protein)
chain: MNEVSVIKEGWLHKRGEYIKTWRPRYFLLKSDGSFIGYKERPEAPDQTLPPLNNFSVAECQLMKTERPRPNTFVIRCLQWTTVIERTFHVDSPDEREEWMRAIQMVANSLKQRAPGEDPMDYKCGSPSDSSTTEEMEVAVSKARAKVTMNDFDYLKLLGKGTFGKVILVREKATGRYYAMKILRKEVIIAKDEVAHTVTESRVLQNTRHPFLTALKYAFQTHDRLCFVMEYANGGELFFHLSRERVFTEERARFYGAEIVSALEYLHSRDVVYRDIKLENLMLDKDGHIKITDFGLCKEGISDGATMKTFCGTPEYLAPEVLEDNDYGRAVDWWGLGVVMYEMMCGRLPFYNQDHERLFELILMEEIRFPRTLSPEAKSLLAGLLKKDPKQRLGGGPSDAKEVMEHRFFLSINWQDVVQKKLLPPFKPQVTSEVDTRYFDDEFTAQSITITPPDRYDSLGLLELDQRTHFPQFSYSASIRE
B3 was tested. Which Km [3] did it give?
Its Km is 254 µM.
